Source: patent US20050079613

Test system: three human E2 enzymes UbCH2, UbCH3 and UbCH5a (at least one of these three enzymes)

For “GST fusion of the MARCH-VIII RING-CH domain”, the “formation of high-molecular weight ubiquitin complexes in vitro (anti-ubiquitin blot)” value was “The RiNG-CH-GST fusion proteins of all four MARCH-proteins tested were able to catalyze the formation of high-molecular weight molecular ubiquitin complexes in the presence of at least one of these three enzymes”.
